# Laboratory results taken from patent publication US20110294738A1, “PTHR1 RECEPTOR COMPOUNDS” (priority 2008, published 2011).
# * marks the point of attachment. Palmitoyl = CCCCCCCCCCCCCCCC(=O)*
# B1: Compound 3 (peptide)
# peptide: Palmitoyl-LAYFRRLHSTRNY-NH2
# SMILES: CCCCCCCCCCCCCCCC(=O)N[C@@H](CC(C)C)C(=O)N[C@@H](C)C(=O)N[C@@H](Cc1ccc(O)cc1)C(=O)N[C@@H](Cc1ccccc1)C(=O)N[C@@H](CCCNC(=N)N)C(=O)N[C@@H](CCCNC(=N)N)C(=O)N[C@@H](CC(C)C)C(=O)N[C@@H](Cc1c[nH]cn1)C(=O)N[C@@H](CO)C(=O)N[C@H](C(=O)N[C@@H](CCCNC(=N)N)C(=O)N[C@@H](CC(N)=O)C(=O)N[C@@H](Cc1ccc(O)cc1)C(N)=O)[C@@H](C)O
# B2: Compound 60 (peptide)
# peptide: Palmitoyl-RETNAGRSDTRQQYRK-NH2
# SMILES: CCCCCCCCCCCCCCCC(=O)N[C@@H](CCCNC(=N)N)C(=O)N[C@@H](CCC(=O)O)C(=O)N[C@H](C(=O)N[C@@H](CC(N)=O)C(=O)N[C@@H](C)C(=O)NCC(=O)N[C@@H](CCCNC(=N)N)C(=O)N[C@@H](CO)C(=O)N[C@@H](CC(=O)O)C(=O)N[C@H](C(=O)N[C@@H](CCCNC(=N)N)C(=O)N[C@@H](CCC(N)=O)C(=O)N[C@@H](CCC(N)=O)C(=O)N[C@@H](Cc1ccc(O)cc1)C(=O)N[C@@H](CCCNC(=N)N)C(=O)N[C@@H](CCCCN)C(N)=O)[C@@H](C)O)[C@@H](C)O
# B3: Compound 61 (peptide)
# peptide: Palmitoyl-RETNAGRSDTRQQYRF-NH2
# SMILES: CCCCCCCCCCCCCCCC(=O)N[C@@H](CCCNC(=N)N)C(=O)N[C@@H](CCC(=O)O)C(=O)N[C@H](C(=O)N[C@@H](CC(N)=O)C(=O)N[C@@H](C)C(=O)NCC(=O)N[C@@H](CCCNC(=N)N)C(=O)N[C@@H](CO)C(=O)N[C@@H](CC(=O)O)C(=O)N[C@H](C(=O)N[C@@H](CCCNC(=N)N)C(=O)N[C@@H](CCC(N)=O)C(=O)N[C@@H](CCC(N)=O)C(=O)N[C@@H](Cc1ccc(O)cc1)C(=O)N[C@@H](CCCNC(=N)N)C(=O)N[C@@H](Cc1ccccc1)C(N)=O)[C@@H](C)O)[C@@H](C)O
# B4: Compound 66 (peptide)
# peptide: Palmitoyl-RSDTRQQYRKLLKS-NH2
# SMILES: CCCCCCCCCCCCCCCC(=O)N[C@@H](CCCNC(=N)N)C(=O)N[C@@H](CO)C(=O)N[C@@H](CC(=O)O)C(=O)N[C@H](C(=O)N[C@@H](CCCNC(=N)N)C(=O)N[C@@H](CCC(N)=O)C(=O)N[C@@H](CCC(N)=O)C(=O)N[C@@H](Cc1ccc(O)cc1)C(=O)N[C@@H](CCCNC(=N)N)C(=O)N[C@@H](CCCCN)C(=O)N[C@@H](CC(C)C)C(=O)N[C@@H](CC(C)C)C(=O)N[C@@H](CCCCN)C(=O)N[C@@H](CO)C(N)=O)[C@@H](C)O
# B5: Compound 59 (peptide)
# peptide: Palmitoyl-RETNAGRSDTRQQYRKLL-NH2
# SMILES: CCCCCCCCCCCCCCCC(=O)N[C@@H](CCCNC(=N)N)C(=O)N[C@@H](CCC(=O)O)C(=O)N[C@H](C(=O)N[C@@H](CC(N)=O)C(=O)N[C@@H](C)C(=O)NCC(=O)N[C@@H](CCCNC(=N)N)C(=O)N[C@@H](CO)C(=O)N[C@@H](CC(=O)O)C(=O)N[C@H](C(=O)N[C@@H](CCCNC(=N)N)C(=O)N[C@@H](CCC(N)=O)C(=O)N[C@@H](CCC(N)=O)C(=O)N[C@@H](Cc1ccc(O)cc1)C(=O)N[C@@H](CCCNC(=N)N)C(=O)N[C@@H](CCCCN)C(=O)N[C@@H](CC(C)C)C(=O)N[C@@H](CC(C)C)C(N)=O)[C@@H](C)O)[C@@H](C)O
# B6: Compound 65 (peptide)
# peptide: Palmitoyl-AGRSDTRQQYRKLLKS-NH2
# SMILES: CCCCCCCCCCCCCCCC(=O)N[C@@H](C)C(=O)NCC(=O)N[C@@H](CCCNC(=N)N)C(=O)N[C@@H](CO)C(=O)N[C@@H](CC(=O)O)C(=O)N[C@H](C(=O)N[C@@H](CCCNC(=N)N)C(=O)N[C@@H](CCC(N)=O)C(=O)N[C@@H](CCC(N)=O)C(=O)N[C@@H](Cc1ccc(O)cc1)C(=O)N[C@@H](CCCNC(=N)N)C(=O)N[C@@H](CCCCN)C(=O)N[C@@H](CC(C)C)C(=O)N[C@@H](CC(C)C)C(=O)N[C@@H](CCCCN)C(=O)N[C@@H](CO)C(N)=O)[C@@H](C)O
# B7: Compound 64 (peptide)
# peptide: Palmitoyl-TNAGRSDTRQQYRKLLKS-NH2
# SMILES: CCCCCCCCCCCCCCCC(=O)N[C@H](C(=O)N[C@@H](CC(N)=O)C(=O)N[C@@H](C)C(=O)NCC(=O)N[C@@H](CCCNC(=N)N)C(=O)N[C@@H](CO)C(=O)N[C@@H](CC(=O)O)C(=O)N[C@H](C(=O)N[C@@H](CCCNC(=N)N)C(=O)N[C@@H](CCC(N)=O)C(=O)N[C@@H](CCC(N)=O)C(=O)N[C@@H](Cc1ccc(O)cc1)C(=O)N[C@@H](CCCNC(=N)N)C(=O)N[C@@H](CCCCN)C(=O)N[C@@H](CC(C)C)C(=O)N[C@@H](CC(C)C)C(=O)N[C@@H](CCCCN)C(=O)N[C@@H](CO)C(N)=O)[C@@H](C)O)[C@@H](C)O
# B8: Compound 57 (peptide)
# peptide: Palmitoyl-RQQYRKLLKSTL-NH2
# SMILES: CCCCCCCCCCCCCCCC(=O)N[C@@H](CCCNC(=N)N)C(=O)N[C@@H](CCC(N)=O)C(=O)N[C@@H](CCC(N)=O)C(=O)N[C@@H](Cc1ccc(O)cc1)C(=O)N[C@@H](CCCNC(=N)N)C(=O)N[C@@H](CCCCN)C(=O)N[C@@H](CC(C)C)C(=O)N[C@@H](CC(C)C)C(=O)N[C@@H](CCCCN)C(=O)N[C@@H](CO)C(=O)N[C@H](C(=O)N[C@@H](CC(C)C)C(N)=O)[C@@H](C)O
# B9: Compound 58 (peptide)
# peptide: Palmitoyl-RETNAGRSDTRQQYRKLLFS-NH2
# SMILES: CCCCCCCCCCCCCCCC(=O)N[C@@H](CCCNC(=N)N)C(=O)N[C@@H](CCC(=O)O)C(=O)N[C@H](C(=O)N[C@@H](CC(N)=O)C(=O)N[C@@H](C)C(=O)NCC(=O)N[C@@H](CCCNC(=N)N)C(=O)N[C@@H](CO)C(=O)N[C@@H](CC(=O)O)C(=O)N[C@H](C(=O)N[C@@H](CCCNC(=N)N)C(=O)N[C@@H](CCC(N)=O)C(=O)N[C@@H](CCC(N)=O)C(=O)N[C@@H](Cc1ccc(O)cc1)C(=O)N[C@@H](CCCNC(=N)N)C(=O)N[C@@H](CCCCN)C(=O)N[C@@H](CC(C)C)C(=O)N[C@@H](CC(C)C)C(=O)N[C@@H](Cc1ccccc1)C(=O)N[C@@H](CO)C(N)=O)[C@@H](C)O)[C@@H](C)O
# B10: Compound 62 (peptide)
# peptide: Palmitoyl-RETNAGRSDTRQQY-NH2
# SMILES: CCCCCCCCCCCCCCCC(=O)N[C@@H](CCCNC(=N)N)C(=O)N[C@@H](CCC(=O)O)C(=O)N[C@H](C(=O)N[C@@H](CC(N)=O)C(=O)N[C@@H](C)C(=O)NCC(=O)N[C@@H](CCCNC(=N)N)C(=O)N[C@@H](CO)C(=O)N[C@@H](CC(=O)O)C(=O)N[C@H](C(=O)N[C@@H](CCCNC(=N)N)C(=O)N[C@@H](CCC(N)=O)C(=O)N[C@@H](CCC(N)=O)C(=O)N[C@@H](Cc1ccc(O)cc1)C(N)=O)[C@@H](C)O)[C@@H](C)O
# Target: PTHR1 receptor
# Sequence (P25961 whole entry): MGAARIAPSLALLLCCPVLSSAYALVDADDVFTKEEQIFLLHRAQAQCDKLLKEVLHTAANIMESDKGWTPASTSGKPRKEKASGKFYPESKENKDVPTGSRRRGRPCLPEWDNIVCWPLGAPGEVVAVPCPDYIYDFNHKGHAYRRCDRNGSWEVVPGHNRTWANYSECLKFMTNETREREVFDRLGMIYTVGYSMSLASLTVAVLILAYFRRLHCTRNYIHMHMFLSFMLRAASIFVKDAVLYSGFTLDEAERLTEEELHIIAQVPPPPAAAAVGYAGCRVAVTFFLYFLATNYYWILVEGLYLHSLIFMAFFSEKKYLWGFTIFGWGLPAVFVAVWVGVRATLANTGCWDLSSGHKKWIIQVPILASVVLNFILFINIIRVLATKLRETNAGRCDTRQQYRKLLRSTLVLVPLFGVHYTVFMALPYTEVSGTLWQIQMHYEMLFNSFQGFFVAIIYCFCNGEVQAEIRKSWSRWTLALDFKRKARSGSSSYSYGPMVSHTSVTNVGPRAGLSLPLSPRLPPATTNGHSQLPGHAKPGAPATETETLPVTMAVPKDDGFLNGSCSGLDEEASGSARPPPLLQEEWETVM
Fold Shift of EC50,Inhibition of Maximal Response,Binder
0.7 fold,-51.4%,B1
3.3 fold,4.3%,B2
0.7 fold,-47.6%,B3
16.4 fold,-39%,B4
5.2 fold,3%,B5
14.7 fold,-0.359,B6
7 fold,-0.1%,B7
15.6 fold,-38.8%,B8
17.7 fold,0.0367,B9
1.1 fold,-5.4%,B10
